A word on the stoichiometry N: it is the number of molecules, sites or subunits per partner or assembly.

In paper PMC9458691 one finds stoichiometry N data, which are given here for four substances.

What all share (assay): native gel or EMSA; Blue Native PAGE, gradient from 3.5 to 16% polyacrylamide, of the IEC fractions of affinity purified PSII
Assay [1] deals with PSII with the protein composition of mature PSII, isolated via His-tagged CP43 (T. elongatus (endogenous in T. elongatus) | Thermosynechococcus elongatus) (UniProt P0A444).
Assay [2] addresses PSII with the protein composition of mature PSII, isolated via CP43-TS-Tag (T. elongatus (endogenous in T. elongatus BP-1) | Thermosynechococcus elongatus BP-1) (UniProt P0A444).
Assay [3] concerns the target Psb27-PSII complex isolated via CP43-TS-Tag (PSII with Psb27, without the extrinsic subunits) (T. elongatus (endogenous in T. elongatus BP-1) | Thermosynechococcus elongatus BP-1) (UniProt P0A444).
Assay [4] has as its target Psb27-PSII complex isolated via His-tagged CP43 (PSII with Psb27, without the extrinsic subunits) (T. elongatus (endogenous in T. elongatus) | Thermosynechococcus elongatus) (UniProt P0A444).

The substance “PSII with the protein composition of mature PSII, isolated via His-tagged CP43 (from UniProt P0A444 1-344; Q8CM25 1-352; Q8DIF8 1-461; Q8DIQ1 1-510; P0A431 27-272; Q9F1L5 31-134; P0A386 27-163) (complex)” gave a stoichiometry N in assay [1] of 2. In assay [2], “PSII with the protein composition of mature PSII, isolated via CP43-TS-Tag (from UniProt P0A444 1-344; Q8CM25 1-352; Q8DIF8 1-461; Q8DIQ1 1-510; P0A431 27-272; Q9F1L5 31-134; P0A386 27-163) (complex)” returned a stoichiometry N of 2. On to “Psb27-PSII complex isolated via CP43-TS-Tag (PSII with Psb27, without the extrinsic subunits) (from UniProt P0A444 1-344; Q8CM25 1-352; Q8DIF8 1-461; Q8DIQ1 1-510; Q8DG60 22-134)”, for which, in assay [3], the stoichiometry N stood at 2. In assay [4], “Psb27-PSII complex isolated via His-tagged CP43 (PSII with Psb27, without the extrinsic subunits) (from UniProt P0A444 1-344; Q8CM25 1-352; Q8DIF8 1-461; Q8DIQ1 1-510; Q8DG60 22-134)” gave a stoichiometry N of 2.
